# Data published in the nanobody polyreactivity screen of Harvey et al. (2022).
# Assay: yeast display, Sf9 membrane polyspecificity reagent, FACS + sequencing; frameworks hold sequencing errors
# Outline: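 A synthetic nanobody library was expressed on Saccharomyces cerevisiae BJ5465 by galactose induction for 36–48 hours. The library was stained for 1 hour at 4 °C with 10% biotinylated, detergent-solubilized Sf9 membrane reagent and enriched with streptavidin microbeads before FACS. Low and high (top ~1%) gates were set on anti-HA fluorescence for expression and streptavidin fluorescence for reagent binding, and each polyreactivity label reflects the gate of origin.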
row,Sequence,polyreactivity (PSR sort gate)
1,QVQLVESGGGLVQAGGSLRLSCAASGRTFRYYAMGWYRQAPGKERELVAAISWNGANTYYADSVKGRFTISRDNAKNTVYLQMNSLKPEDTAVYYCAANYYRWKGYDYWGQGTQVTVSS,high polyreactivity
2,QVQLVESGGGLVQAGGSLRLSCAASGRTFRYYAMGWYRQAPGKERELVAAITSADSTNYADSVKGRFTISRDNAKNTVYLQMNSLKPEDTAVYYCAAGYVYQAAAKYGRIFWGYDSWGQGSQVTVSS,low polyreactivity
3,QVQLVESGGGLVQAGGSLRLSCAASGRTFRYYAMGWYRQAPGKERELVATISKSGGSTYYADSVKGRFTISRDNAKNTVYLQMNSLKPVDTAVYYCAAVGPYRWYDYWGQGTQVTVSS,high polyreactivity
4,QVQLVESGGGLVQAGGSLRLSCAASGRTFRYYDMGWYRQAPGKERELVAAITSRGGSTYYADSVKGRFTISRDNAKNTVYLQMNSLIPEDTAVYDCNAYPVQIFYLGNRQYNYWGHGTQVTVSS,high polyreactivity
5,QVQLVESGGGLVQAGGSLRLSCAASGRTFRYYDMGWYRQATGKERELVARISISGAGTYYADSVKGRFTISRDNAKNTVYLQINSLKPEDTAVYYCAADLFWWQKTNSGGDYWGQGTQVTVSS,low polyreactivity
6,QVQLVESGGGLVQAGGSLRLSCAASGRTFRYYGMGWYRQAPGKERELVAAISWSGGSTYYADSVKGRYTISRDNAKNSVYLQMNSLKPEDTAVYYCAADGQYYYGFDYWGQGTQVTVSS,high polyreactivity
7,QVQLVESGGGLVQAGGSLRLSCAASGRTFRYYTMGWYRQAPGKERELVAAITVGSRTNYADSEKGRFTISRDNAKNTVYFQMNSLKAEDTAVYYCARRSYYQYRYDYWGQGTQVTVSS,high polyreactivity
8,QVQLVESGGGLVQAGGSLRLSCAASGRTFRYYVMGWYRQAPGKERELVARISWSGARTYYADSVKGRFTISRDHAKNTVYLQMNSLKPEDTAVYYCAADNPYYYRRDYWGQGTQVTVSS,low polyreactivity
9,QVQLVESGGGLVQAGGSLRLSCAASGRTFSAYAMGWSRQAPGKERELVAAISRSGGRTYYADSVKGRFTISRDNAKNTVYLQMNSLKPEDTAVYYCAAGSNIWGQGTQVTVSS,high polyreactivity
10,QVQLVESGGGLVQAGGSLRLSCAASGRTFSAYAMGWYRQAPGKERELVARITSVDSTNYADSVKGRFTISRDNAKNTVYLQMNSLKPDDTAVYYCNATFVFPFVDYDDYWGQGTQVTVSS,low polyreactivity
11,QVQLVESGGGLVQAGGSLRLSCAASGRTFSENAMGWYRQARGKERELVAAISGSGGRTYYADSVKGRFTISRDNAKNTVYLQMNSLKPEDTAVYYCAKVTRYGSTYDYWGQGTQVTVSS,high polyreactivity
12,QVQLVESGGGLVQAGGSLRLSCAASGRTFSEYAMGWYRQAPGKERELVAAITENGGSTYYADSVKGRFTISRDNAKNTVYLQMNSLKPEDTAVYYCAAETWADWYSEFYWGQGTQVTVSS,high polyreactivity
13,QVQLVESGGGLVQAGGSLRLSCAASGRTFSFYAMGLYRQAPGKERELVAAIRSDGGTTYYADSVKGRFTISRVNGKNTVYLQMNSLKPEDTAVYYCNTQSFYFVSFSSSRYLRYYWGQGTQVTVSS,low polyreactivity
14,QVQLVESGGGLVQAGGSLRLSCAASGRTFSGNAMGWYRQAPGKERELVATITRRGGSTYYADSVKGRFTISRDNAKNTVYLQMNSLKPEDNAVYYCAARRVVNGGQGYESWGQGTQVTVSS,high polyreactivity
15,QVQLVESGGGLVQAGGSLRLSCAASGRTFSGYAMGWYRQAPGKERELVAAISSGGGSTYYADSVKGRFTISRDIAKNTVYLQMNSLKPEDTAVYYCAADGYPGDYDYWGQGTQVTVSS,low polyreactivity
16,QVQLVESGGGLVQAGGSLRLSCAASGRTFSGYAMGWYRQAPGKERELVAVITYSGGSTYYADSVKGRFTISRDNAKNTVYLQMNSLKPEDTAVYYCNADYVIFYQLVDYDYWGQGTQVTVSS,low polyreactivity
17,QVQLVESGGGLVQAGGSLRLSCAASGRTFSINAMGWYRQAPGKEREMVADITKRGSTYYADSVKGRFTISRDNAKNTVYLQMNSLKREDTAVYYCNARYRGRVYDRFGYWGQGTQVTVSS,high polyreactivity
18,QVQLVESGGGLVQAGGSLRLSCAASGRTFSIYAMGWYRQAPGKERELVASITGRGGSTYYADSVKGRFTISRDNAKNTVYLQMNSLKPEDTAVYYCAADSYKPDGYRLRNDYWGQGTQVTVSS,high polyreactivity
19,QVQLVESGGGLVQAGGSLRLSCAASGRTFSIYAMGWYRQAPGKERELVASITNSDGSTYYADSVKGRFTISRDNAKNTVYLQMNSLKPEDTAVYYCNVDSGQSWSLWTYVQYDDYWGQGTQVTVSS,low polyreactivity
20,QVQLVESGGGLVQAGGSLRLSCAASGRTFSKNTMGWYRKAPGKERELVASITRRGGSTYYADSVKGRFTISRDNAKNTVYLQMKSLKPEDTAVYYCAVRWRDYRGSYRGFEYWGQGTQVTVSS,high polyreactivity
21,QVQLVESGGGLVQAGGSLRLSCAASGRTFSKYAMGWYRQAPGKERELVASITWSGGTTNYADSVKGRFTISRDNAKNTVYLQMNSLKPEDTAVYYCNADGYLAERFFIRLDEYRDYDYWGQGTQVTVSS,low polyreactivity

row,Sequence,polyreactivity (PSR sort gate)
1,QVQLVESGGGLVQAGGSLRLSCAASGRTFSKYTMGRYRQAHGKEMEFGAAISYSGGSTYYADSVKGRFTISRDYAKKTVYLQMNSLKPEDTAVYYCAARASTYKYYYWGQGTQVTVSS,high polyreactivity
2,QVQLVESGGGLVQAGGSLRLSCAASGRTFSNYAMGWYRQAPGKERELVAAISQRGGSTYYADSVKGRFTISRDNAKITVYLQMNSLKPEDTAVYYCNALFRLRAYADMDYWGQGTQVTVSS,high polyreactivity
3,QVQLVESGGGLVQAGGSLRLSCAASGRTFSPNSMVWYRPAPGKERELVAAITRSDGRTYYADSVKGRFTISRDNAKNTVYLQMNSLKPEDTAVYYCAVDGYYPPAWYEYDYWGQGTQVTVSS,high polyreactivity
4,QVQLVESGGGLVQAGGSLRLSCAASGRTFSRNAMGRYRQAPGKERELVATITSDGSTNYADSVKGRFTISRDNAKNTVYLQMNSLKPEDTAVYYCAAGEQSSIIGAHDYWGQGTQVTVSS,low polyreactivity
5,QVQLVESGGGLVQAGGSLRLSCAASGRTFSRNAMGWYRQAPGKERELVATISSSGVRTYYADSVKGRFTISRDNAKNTVYVQMNSLKPEDTGVYYCAAALRYFSAASGYDYWGQGTQVTVTS,low polyreactivity
6,QVQLVESGGGLVQAGGSLRLSCAASGRTFSRYAMGWYRQAPGKERELVAAITSGGSTYYADSVKGRFTISRDNAKNTVYLQMNSLKPEDTAVYYCAAVWRYGYSDGGYWGLGTQVTVSS,high polyreactivity
7,QVQLVESGGGLVQAGGSLRLSCAASGRTFSRYAMGWYRQAPGKERELVATINSRAGITNYADSVKGRFTISRDNAKNTVYLQMNSLKPEDTAVYYCAAKGVIISYDTLRYDYWGQATQVTVSS,high polyreactivity
8,QVQLVESGGGLVQAGGSLRLSCAASGRTFSSNAMGWYRQAPGKERELVASISFRGGRTYYADSVKGRFTISRDNAKNTVYLQMNSLKPEDTAVYYCVSGTKRTGYGYWGQGTQVTVSS,high polyreactivity
9,QVQLVESGGGLVQAGGSLRLSCAASGRTFSSNAMGWYRQAPGKERELVATITYSGGSTYYADSVKGRFTISRDNAKNTVYLQMNSLKPEDTAVYYCAVRVSTYITKYYYWGQGTQVTVSS,low polyreactivity
10,QVQLVESGGGLVQAGGSLRLSCAASGRTFSSNAMGWYRQAPGKERELVAVITRRGGSTYYADSVKGRFTISRDNAKNTVYLQMNSLKPEDTAVYYCATDAPPQRSGRRSAGQKYYYLGQGTQVTVSS,high polyreactivity
11,QVQLVESGGGLVQAGGSLRLSCAASGRTFSSNTMGWYRQAPGKERELVAAITKSGANTYYADSVKGRFTISRDNAKNTVYLQMNSLKPEDTAVYYCAAPGKVQRYYYWGQGTQVTVSS,high polyreactivity
12,QVQLVESGGGLVQAGGSLRLSCAASGRTFSSTAMGWYRPAPGKERELVATITYSGGSTYYADSVKGRFTISRDNAKNTVYLQMISLKPEDCAVYYGAVRVSTYMTKYYYWGQGTQVTVSS,low polyreactivity
13,QVQLVESGGGLVQAGGSLRLSCAASGRTFSSYTMGWYIQAPGKEMELVAAISWRGGSTYYADSVKGRFTISSDNAKNTVYLQMNSLKPEDTAVYYCAARSYLTPDYYYWGQGTQVNVSS,high polyreactivity
14,QVQLVESGGGLVQAGGSLRLSCAASGRTFSSYVMGWYRQAPGKERELVASISRRGGSTYYADSVKGRFTISRDNAKNTVYLQMNSLKPEDTAVYYCNADLRGFGRGTDQYIFDYWGQGTQVTVSS,high polyreactivity
15,QVQLVESGGGLVQAGGSLRLSCAASGRTFSTYAMGWYRQAPGKERELVAAITSSGTSTYYADSVKGRFTISRDNAKNTVYLQMNSLKPEDTAVYYCAAVTKRYLAYDYWGQGTQVTVSS,high polyreactivity
16,QVQLVESGGGLVQAGGSLRLSCAASGRTFSTYAMGWYRQAPGKERELVAAKSSGGGRTYYADSVKGRFTISRDNAKNTVYLQMNSLKPEDTAVYYCAADRYFRSRRSYEYWGQGTQVTVSS,low polyreactivity
17,QVQLVESGGGLVQAGGSLRLSCAASGRTFSVNAMGWYRQAPGKERELVAAISWDGGSTYYADSVKGRFTISRDNAKNTVYLQMNSLKPEDTAVYYCIKDLYYAYDYWGQGTQVNVSS,low polyreactivity
18,QVQLVESGGGLVQAGGSLRLSCAASGRTFSVNAMGWYRQAPGKERELVAAITSGASTNYADSVKGRFTMSRDNAKNTVYLQMNSLKPEDTAVYYCAADATYGHVPAEYDYWGQGTQVTVSS,low polyreactivity
19,QVQLVESGGGLVQAGGSLRLSCAASGRTFSVYAMGWYRQAPGKEREFVATISYSGVRTSYADSVKGRFTISRDNAKNTGYLQMNSLKPEDTAVYYCNARTYYPVYYRDGGYWGQGTQVTVSS,high polyreactivity
20,QVQLVESGGGLVQAGGSLRLSCAASGRTFSVYAMGWYRQAPGKERELVAVISYRDGTTYYADSVKGRFTISRDNAKNTVYLQMNSLKPEDTAVYYCAADFFSDFDWGQGTQVTVSS,low polyreactivity
